Results as given in paper PMC3794784, “The Role of Initial Oligomers in Amyloid Fibril Formation by Human Stefin B” (International Journal of Molecular Sciences, 2013).
Values joined by “and” are separate entries in the source; they are usually repeats but may differ in a detail not shown here. Equal entries are not always repeated.

Assays:
[1] = target: the molecule itself; experiment: SEC; concentration dependence (34, 75, 100 μM), started from the oligomer mixture; 0.02 M ammonium acetate, pH 7.5, 0.15 M NaCl, 9% (v/v) TFE, 50 °C, 300 rpm, 5 h; aliquots on Superdex 75; dimer to monomers, Kd = [M]^2/[D]
[2] = target: the molecule itself; experiment: SEC; pH dependent transitions started from separated tetramers or higher-order oligomers; 34 μM protein, 2 h at 23 °C at pH 4.8, 5.8 or 7.0, 0.15 M NaCl, 9% (v/v) TFE
[3] = target: the molecule itself; experiment: SEC; concentration dependence (4, 9, 34, 75, 100 μM), started from the oligomer mixture; 0.1 M phosphate buffer, pH 5.8, 0.15 M NaCl, 9% (v/v) TFE, 25 °C, 300 rpm, 5 h; aliquots on Superdex 75; tetramer to dimers, Kd = [D]^2/[T]
[4] = target: the molecule itself; experiment: SEC; time course started from SEC-purified monomers, dimers, tetramers or higher-order oligomers; pH 5.8 (0.1 M phosphate buffer, 0.15 M NaCl, 9% (v/v) TFE, 25 °C); an aliquot every hour on Superdex 75; tetramer to dimers
[5] = target: the molecule itself; experiment: native MS; ESI-Q-TOF MS of SEC fractions, stefin B in 0.02 M ammonium acetate, pH 7.5, injected directly, positive mode
[6] = target: the molecule itself; experiment: SEC; oligomers isolated on Superdex 75 and then loaded on Superdex 200; room temperature; 0.01 M phosphate buffer, pH 7.0, 0.15 M NaCl (0.02 M ammonium acetate, pH 7.5 for ESI MS samples)

B1: Recombinant human stefin B (S3E31) (natural protein, UniProt P04080 1-98, looked up)
chain: MMSGAPSATQPATAETQHIADQVRSQLEEKENKKFPVFKAVSFKSQVVAGTNYFIKVHVGDEDFVHLRVFQSLPHENKPLTLSNYQTNKAKHDELTYF
notes: human stefin B (product of the cystatin B gene), a globular protein of 98 amino acid residues; variant S3E31: Ser at position 3 instead of Cys, Glu at position 31; also called cystatin B
Q: Which results are given for B1?
A: Ka [1]: 612000 M⁻¹; Kd [1]: 1.63 ± 0.31 µM; stoichiometry N [2]: 6 and 3; Ka [3]: 3080 M⁻¹; Kd [3]: 325 ± 180 µM; koff [4]: 0.0001 s⁻¹; stoichiometry N [5]: 10 and 8; stoichiometry N [6]: 2 and 4
